Data taken from patent US20150274807A1 (SUZHOU ALPHAMAB, published 2015).

B1: Fc protein K392D/K409D/D399K (other)
chain: GSGGGDKTHTCPPCPAPELLGGPSVFLFPPKPKDTLMISRTPEVTCVVVDVSHENPEVKFNWYVDGVEVHNAKTKPREEQYNSTYRVVSVLTVLHQDWLNGKEYKCKVSNKALPAPIEKTISKAKGQPREPQVYTLPPSREEMTKNQVSLTCLVKGFYPSDIAVEWESNGQPENNYDTTPPVLKSDGSFFLYSDLTVDKSRWQQGNVFSCSVMHEALHNHYTQKSLSLSPGK
notes: Monomer chain; EU numbering is K392D/K409D/D399K; also called Fc-mix1; Fc of mutation combinations 1, 5 and 6

Legend:
[1] = molecular target: the molecule itself; test: co-transfection 1:1 in 293H, protein A pull-down, non-reducing SDS-PAGE densitometry; co-expressed with ScFv-Fc WT
Protocol: (§1) The expression vectors harbor 8 mutation combinations in step 3 were separately transfected with PEI into suspension adapted 293H cells (ATCC CRL-1573), the co-transfection ratio of plasmids pcDNA3.1-zeo-ScFv-Fc to pcMVβ-SP-Fc was 1:1, and after 3-4 days, cell culture supernatant was collected. Immuno precipitation was performed with protein A agarose resin, and the content of the homodimer proteins or antibodies (ScFv-Fc/ScFv-Fc and Fc/Fc) and the heterodimer protein or antibody (ScFv-Fc/Fc) was detected by SDS-PAGE under non-reducing conditions. Gel-Pro professional image analysis software (Media Cybernetics company) was used for analyzing the proportion of the homodimer proteins or antibodies (ScFv-Fc/ScFv-Fc and Fc/Fc) and the heterodimer protein or antibody (ScFv-Fc/Fc). […] In addition, when E357K/K370E/K392D/K409D/D399K (mutation combination 4) was introduced on Fc, the stability should be further investigated because of the appearance of Fc monomers (about 6%).

[2] = molecular target: the molecule itself; test: co-transfection 1:1 in 293H, protein A pull-down, non-reducing SDS-PAGE densitometry; co-expressed with Fc K392D/K409D/D399K
Protocol: as §1

[3] = molecular target: B1; test: co-transfection 1:1 in 293H, protein A pull-down, non-reducing SDS-PAGE densitometry
Protocol: as §1

Row | Binder | proportion of Fc homodimer on SDS-PAGE [1] [%] | proportion of ScFv-Fc homodimer on SDS-PAGE [2] [%] | proportion of ScFv-Fc/Fc heterodimer on SDS-PAGE [3] [%]
1 | Fc protein E357K/K370E (other, Monomer chain; also called Fc of mutation combination 3) GSGGGDKTHTCPPCPAPELLGGPSVFLFPPKPKDTLMISRTPEVTCVVVDVSHENPEVKFNWYVDGVEVHNAKTKPREEQYNSTYRVVSVLTVLHQDWLNGKEYKCKVSNKALPAPIEKTISKAKGQPREPQVYTLPPSREKMTKNQVSLTCLVEGFYPSDIAVEWESNGQPENNYKTTPPVLDSDGSFFLYSKLTVDKSRWQQGNVFSCSVMHEALHNHYTQKSLSLSPGK | 47.5 |  | 
2 | Fc protein E357K/K370E/K392D/K409D/D399K (other, Monomer chain; also called Fc-mix13; Fc of mutation combination 4) GSGGGDKTHTCPPCPAPELLGGPSVFLFPPKPKDTLMISRTPEVTCVVVDVSHENPEVKFNWYVDGVEVHNAKTKPREEQYNSTYRVVSVLTVLHQDWLNGKEYKCKVSNKALPAPIEKTISKAKGQPREPQVYTLPPSREKMTKNQVSLTCLVEGFYPSDIAVEWESNGQPENNYDTTPPVLKSDGSFFLYSDLTVDKSRWQQGNVFSCSVMHEALHNHYTQKSLSLSPGK | 28.7 |  | 
3 | ScFv-Fc protein E356K/K439E (Fc fusion, Monomer chain; also called scFv-Fcmix1; ScFv-Fc of mutation combination 6) EVQLLESGGGVVQPGRSLRLSCIASGFTFSSYPMTWVRQAPGKGLEWVASISYDGSYKYKADSMKGRLTISRDNSKNTLYLEMNSLTAEDTAVYYCARTAFFNAYDFWGQGTLVTVSSASTKGPSVGGGGSGGGGSEIVMTQSPATLSVSPGERATLSCRASQSVRSNLAWYQQKPGQAPRLLIYAASTRATGIPARFSGSGSGTEFTLTISSLQSEDFAVYYCQQYNEWFRTSGQGTKVEIKRDKTHTCPPCPAPELLGGPSVFLFPPKPKDTLMISRTPEVTCVVVDVSHENPEVKFNWYVDGVEVHNAKTKPREEQYNSTYRVVSVLTVLHQDWLNGKEYKCKVSNKALPAPIEKTISKAKGQPREPQVYTLPPSRKEMTKNQVSLTCLVKGFYPSDIAVEWESNGQPENNYKTTPPVLDSDGSFFLYSKLTVDKSRWQQGNVFSCSVMHEALHNHYTQESLSLSPGK |  | 31.2 | 8.4
4 | ScFv-Fc protein E357K/K370E (Fc fusion, Monomer chain; also called ScFv-Fc of mutation combination 5) EVQLLESGGGVVQPGRSLRLSCIASGFTFSSYPMTWVRQAPGKGLEWVASISYDGSYKYKADSMKGRLTISRDNSKNTLYLEMNSLTAEDTAVYYCARTAFFNAYDFWGQGTLVTVSSASTKGPSVGGGGSGGGGSEIVMTQSPATLSVSPGERATLSCRASQSVRSNLAWYQQKPGQAPRLLIYAASTRATGIPARFSGSGSGTEFTLTISSLQSEDFAVYYCQQYNEWFRTSGQGTKVEIKRDKTHTCPPCPAPELLGGPSVFLFPPKPKDTLMISRTPEVTCVVVDVSHENPEVKFNWYVDGVEVHNAKTKPREEQYNSTYRVVSVLTVLHQDWLNGKEYKCKVSNKALPAPIEKTISKAKGQPREPQVYTLPPSREKMTKNQVSLTCLVEGFYPSDIAVEWESNGQPENNYKTTPPVLDSDGSFFLYSKLTVDKSRWQQGNVFSCSVMHEALHNHYTQKSLSLSPGK |  | 41.5 | 5.9
5 | Fc protein K392D/D399K (other, Monomer chain; also called Fc of mutation combination 7) GSGGGDKTHTCPPCPAPELLGGPSVFLFPPKPKDTLMISRTPEVTCVVVDVSHENPEVKFNWYVDGVEVHNAKTKPREEQYNSTYRVVSVLTVLHQDWLNGKEYKCKVSNKALPAPIEKTISKAKGQPREPQVYTLPPSREEMTKNQVSLTCLVKGFYPSDIAVEWESNGQPENNYDTTPPVLKSDGSFFLYSKLTVDKSRWQQGNVFSCSVMHEALHNHYTQKSLSLSPGK | 44.7 |  | 
6 | Fc protein D399K/K409D (other, Monomer chain; also called Fc of mutation combination 8) GSGGGDKTHTCPPCPAPELLGGPSVFLFPPKPKDTLMISRTPEVTCVVVDVSHENPEVKFNWYVDGVEVHNAKTKPREEQYNSTYRVVSVLTVLHQDWLNGKEYKCKVSNKALPAPIEKTISKAKGQPREPQVYTLPPSREEMTKNQVSLTCLVKGFYPSDIAVEWESNGQPENNYKTTPPVLKSDGSFFLYSDLTVDKSRWQQGNVFSCSVMHEALHNHYTQKSLSLSPGK | 43.4 |  | 
7 | B1 | 51.3 |  | 
8 | Fc protein E356K/K439E (other, Monomer chain; also called Fc of mutation combination 2) GSGGGDKTHTCPPCPAPELLGGPSVFLFPPKPKDTLMISRTPEVTCVVVDVSHENPEVKFNWYVDGVEVHNAKTKPREEQYNSTYRVVSVLTVLHQDWLNGKEYKCKVSNKALPAPIEKTISKAKGQPREPQVYTLPPSRKEMTKNQVSLTCLVKGFYPSDIAVEWESNGQPENNYKTTPPVLDSDGSFFLYSKLTVDKSRWQQGNVFSCSVMHEALHNHYTQESLSLSPGK | 41.1 |  | 
